# Experimental data: the supplement of paper PMC10065799, “High-throughput profiling of sequence recognition by tyrosine kinases and SH2 domains using bacterial peptide display” (eLife, 2023)
# Test system: AncSZ
# Experiment: phosphorylation enrichment, bacterial display (enrichment ratio); higher = better substrate or ligand; peptides without Tyr show the background
# 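Also: 11-residue human phosphosite peptides and single-mutation variants displayed on the E. coli surface, counted by deep sequencing, each peptide's frequency after selection divided by its frequency in the unselected input library; frequency after pTyr selection over input frequency; kinase dosed for 20-30% of maximal phosphorylation in three min.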
row,Sequence,phosphorylation enrichment
1,SFLFRYADDSF [RAB3C_Y50],1.01
2,RRIHSYRGHLC [VHL_Y112_W117C],0.774
3,KASIMYPSNNC [CXCL11_Y52],0.673
4,SVTCTYSPDLN [TP53_Y126_A129D],1.5
5,QDIMAYRGREV [BCL6_Y157],1.1
6,ALTDNYMFVVI [HAGH_Y61_L64V_YF],1.68
7,PFIDSYEKDVA [PGM1_Y521_L516P_YF],1.07
8,LSSISYVGCSL [ADGRD1_Y571],1.01
9,VFFGSYSRPFG [NKAP_Y104_YF],1.39
10,WSFNLYDINKD [KCNIP3_Y174_A170S],1.36
11,ISISPYPAILH [IFT80_Y588_T586S],1.01
12,ATHSGYRLNDY [CLDN14_Y233],0.568
13,GGSTFYIDTNA [ACTL6A_Y69_P66S_YF],0.923
14,LQEKSYIKGTS [LCTL_Y331],1.33
15,QFLMKYVWSAS [ABCD1_Y337],1.15
16,ECKLLYSQKEG [PTPN11_Y263_R265Q],0.865
17,ADAGMYGVLPW [PLP1_Y207_R205G],0.803
18,KKMKRYHVGKV [HARS2_Y151],0.466
19,TNYSLYLRSLE [MTM1_Y71_R69S],0.952
20,STEAIYWRFSK [SH3PXD2B_Y42_R43W_YF],1.2
21,CNSFQYGGGGG [NPPA_Y151_R150Q],0.794
22,NTFENYWPFFQ [GATM_Y103_K102N_YF],1.34
23,ELPEKYSQNIF [PKP2_Y626_YF],0.989
24,EVEPRYVVLFD [ERCC4_Y577_YF],1.18
25,PEFVVYKPQME [CCRL2_Y170],1.7
26,ALECLYRREKR [TEKT5_Y195_H196R],0.775
27,VSTAVYKRFAS [BEST1_Y148_P152A],0.715
28,GIVEDYRPPVF [ACVRL1_Y421_F425V_YF],0.767
29,STEAIYRRYSK [SH3PXD2B_Y42],0.511

# Target: EPHB1 (UniProt P54762)
# Sequence (P54762 whole entry, looked up): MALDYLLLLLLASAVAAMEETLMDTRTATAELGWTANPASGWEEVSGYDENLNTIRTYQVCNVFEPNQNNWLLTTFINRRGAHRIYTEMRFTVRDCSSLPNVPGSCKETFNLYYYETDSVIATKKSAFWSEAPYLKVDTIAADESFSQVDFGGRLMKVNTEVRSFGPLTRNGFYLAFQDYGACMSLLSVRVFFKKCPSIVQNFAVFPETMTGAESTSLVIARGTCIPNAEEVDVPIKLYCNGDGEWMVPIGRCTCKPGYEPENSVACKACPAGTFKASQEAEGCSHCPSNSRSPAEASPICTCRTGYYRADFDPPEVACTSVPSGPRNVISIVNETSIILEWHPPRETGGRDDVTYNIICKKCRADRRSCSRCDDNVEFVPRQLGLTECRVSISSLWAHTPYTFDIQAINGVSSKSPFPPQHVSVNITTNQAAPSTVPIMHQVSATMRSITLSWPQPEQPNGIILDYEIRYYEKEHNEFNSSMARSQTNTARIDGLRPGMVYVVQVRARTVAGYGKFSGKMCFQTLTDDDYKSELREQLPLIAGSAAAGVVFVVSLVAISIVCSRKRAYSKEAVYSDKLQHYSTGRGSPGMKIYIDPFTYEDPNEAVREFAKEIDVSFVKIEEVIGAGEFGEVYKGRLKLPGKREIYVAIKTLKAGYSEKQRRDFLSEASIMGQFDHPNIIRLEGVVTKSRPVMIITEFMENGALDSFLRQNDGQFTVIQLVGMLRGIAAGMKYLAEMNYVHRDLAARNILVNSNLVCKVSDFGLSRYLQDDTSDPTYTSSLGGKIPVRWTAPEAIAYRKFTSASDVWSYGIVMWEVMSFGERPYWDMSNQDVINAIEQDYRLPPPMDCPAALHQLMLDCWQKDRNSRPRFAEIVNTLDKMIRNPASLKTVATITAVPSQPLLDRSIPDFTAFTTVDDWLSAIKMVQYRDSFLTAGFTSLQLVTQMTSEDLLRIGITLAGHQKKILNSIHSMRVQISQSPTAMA
# Experiment: as above
row,Sequence,phosphorylation enrichment
1,SFLFRYADDSF [RAB3C_Y50],0.545
2,RRIHSYRGHLC [VHL_Y112_W117C],0.656
3,KASIMYPSNNC [CXCL11_Y52],0.528
4,SVTCTYSPDLN [TP53_Y126_A129D],0.757
5,QDIMAYRGREV [BCL6_Y157],0.52
6,ALTDNYMFVVI [HAGH_Y61_L64V_YF],11.5
7,PFIDSYEKDVA [PGM1_Y521_L516P_YF],0.574
8,LSSISYVGCSL [ADGRD1_Y571],0.76
9,VFFGSYSRPFG [NKAP_Y104_YF],0.396
10,WSFNLYDINKD [KCNIP3_Y174_A170S],0.894
11,ISISPYPAILH [IFT80_Y588_T586S],0.428
12,ATHSGYRLNDY [CLDN14_Y233],0.518
13,GGSTFYIDTNA [ACTL6A_Y69_P66S_YF],0.523
14,LQEKSYIKGTS [LCTL_Y331],0.652
15,QFLMKYVWSAS [ABCD1_Y337],0.582
16,ECKLLYSQKEG [PTPN11_Y263_R265Q],0.643
17,ADAGMYGVLPW [PLP1_Y207_R205G],1.76
18,KKMKRYHVGKV [HARS2_Y151],0.492
19,TNYSLYLRSLE [MTM1_Y71_R69S],0.722
20,STEAIYWRFSK [SH3PXD2B_Y42_R43W_YF],1.05
21,CNSFQYGGGGG [NPPA_Y151_R150Q],0.501
22,NTFENYWPFFQ [GATM_Y103_K102N_YF],9.64
23,ELPEKYSQNIF [PKP2_Y626_YF],0.528
24,EVEPRYVVLFD [ERCC4_Y577_YF],3.47
25,PEFVVYKPQME [CCRL2_Y170],1.12
26,ALECLYRREKR [TEKT5_Y195_H196R],0.466
27,VSTAVYKRFAS [BEST1_Y148_P152A],0.693
28,GIVEDYRPPVF [ACVRL1_Y421_F425V_YF],0.372
29,STEAIYRRYSK [SH3PXD2B_Y42],0.302

# Target: EPHB2 (UniProt P29323)
# Sequence (P29323 whole entry, looked up): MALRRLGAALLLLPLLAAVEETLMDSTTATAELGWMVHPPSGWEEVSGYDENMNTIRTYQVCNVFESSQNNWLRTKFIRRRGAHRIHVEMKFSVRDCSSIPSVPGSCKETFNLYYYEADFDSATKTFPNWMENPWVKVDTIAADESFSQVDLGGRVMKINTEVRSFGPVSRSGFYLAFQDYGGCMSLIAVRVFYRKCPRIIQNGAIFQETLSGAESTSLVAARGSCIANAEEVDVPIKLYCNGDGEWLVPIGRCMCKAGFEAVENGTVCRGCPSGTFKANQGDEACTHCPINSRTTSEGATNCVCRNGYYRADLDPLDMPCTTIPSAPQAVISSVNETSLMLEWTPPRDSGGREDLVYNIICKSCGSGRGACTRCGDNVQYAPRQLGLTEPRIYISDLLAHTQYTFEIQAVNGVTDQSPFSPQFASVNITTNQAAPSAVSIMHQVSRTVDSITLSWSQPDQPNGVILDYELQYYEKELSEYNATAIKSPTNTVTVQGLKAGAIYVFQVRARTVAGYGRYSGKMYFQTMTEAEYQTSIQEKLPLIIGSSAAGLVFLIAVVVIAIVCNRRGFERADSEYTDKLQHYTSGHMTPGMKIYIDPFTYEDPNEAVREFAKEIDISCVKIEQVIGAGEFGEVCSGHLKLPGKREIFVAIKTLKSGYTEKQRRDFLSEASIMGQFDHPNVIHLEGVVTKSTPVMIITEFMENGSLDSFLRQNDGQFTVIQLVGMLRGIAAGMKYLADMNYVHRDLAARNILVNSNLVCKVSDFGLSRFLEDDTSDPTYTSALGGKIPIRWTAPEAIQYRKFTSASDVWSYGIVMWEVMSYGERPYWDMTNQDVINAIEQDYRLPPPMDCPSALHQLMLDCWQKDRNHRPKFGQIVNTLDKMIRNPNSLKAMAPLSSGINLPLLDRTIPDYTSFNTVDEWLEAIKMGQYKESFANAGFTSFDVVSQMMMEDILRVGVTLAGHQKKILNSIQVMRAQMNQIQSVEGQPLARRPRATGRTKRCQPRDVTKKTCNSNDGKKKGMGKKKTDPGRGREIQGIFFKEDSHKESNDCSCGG
# Experiment: as above
row,Sequence,phosphorylation enrichment
1,SFLFRYADDSF [RAB3C_Y50],0.515
2,RRIHSYRGHLC [VHL_Y112_W117C],0.619
3,KASIMYPSNNC [CXCL11_Y52],0.472
4,SVTCTYSPDLN [TP53_Y126_A129D],0.71
5,QDIMAYRGREV [BCL6_Y157],0.553
6,ALTDNYMFVVI [HAGH_Y61_L64V_YF],8.6
7,PFIDSYEKDVA [PGM1_Y521_L516P_YF],0.708
8,LSSISYVGCSL [ADGRD1_Y571],1.11
9,VFFGSYSRPFG [NKAP_Y104_YF],0.445
10,WSFNLYDINKD [KCNIP3_Y174_A170S],0.875
11,ISISPYPAILH [IFT80_Y588_T586S],0.401
12,ATHSGYRLNDY [CLDN14_Y233],0.491
13,GGSTFYIDTNA [ACTL6A_Y69_P66S_YF],0.48
14,LQEKSYIKGTS [LCTL_Y331],1.02
15,QFLMKYVWSAS [ABCD1_Y337],0.541
16,ECKLLYSQKEG [PTPN11_Y263_R265Q],0.759
17,ADAGMYGVLPW [PLP1_Y207_R205G],6.53
18,KKMKRYHVGKV [HARS2_Y151],0.313
19,TNYSLYLRSLE [MTM1_Y71_R69S],0.671
20,STEAIYWRFSK [SH3PXD2B_Y42_R43W_YF],0.74
21,CNSFQYGGGGG [NPPA_Y151_R150Q],0.452
22,NTFENYWPFFQ [GATM_Y103_K102N_YF],5.8
23,ELPEKYSQNIF [PKP2_Y626_YF],0.492
24,EVEPRYVVLFD [ERCC4_Y577_YF],3.06
25,PEFVVYKPQME [CCRL2_Y170],0.843
26,ALECLYRREKR [TEKT5_Y195_H196R],0.534
27,VSTAVYKRFAS [BEST1_Y148_P152A],0.647
28,GIVEDYRPPVF [ACVRL1_Y421_F425V_YF],0.46
29,STEAIYRRYSK [SH3PXD2B_Y42],0.441

# Target: FGFR1 (UniProt P11362)
# Sequence (P11362 whole entry, looked up): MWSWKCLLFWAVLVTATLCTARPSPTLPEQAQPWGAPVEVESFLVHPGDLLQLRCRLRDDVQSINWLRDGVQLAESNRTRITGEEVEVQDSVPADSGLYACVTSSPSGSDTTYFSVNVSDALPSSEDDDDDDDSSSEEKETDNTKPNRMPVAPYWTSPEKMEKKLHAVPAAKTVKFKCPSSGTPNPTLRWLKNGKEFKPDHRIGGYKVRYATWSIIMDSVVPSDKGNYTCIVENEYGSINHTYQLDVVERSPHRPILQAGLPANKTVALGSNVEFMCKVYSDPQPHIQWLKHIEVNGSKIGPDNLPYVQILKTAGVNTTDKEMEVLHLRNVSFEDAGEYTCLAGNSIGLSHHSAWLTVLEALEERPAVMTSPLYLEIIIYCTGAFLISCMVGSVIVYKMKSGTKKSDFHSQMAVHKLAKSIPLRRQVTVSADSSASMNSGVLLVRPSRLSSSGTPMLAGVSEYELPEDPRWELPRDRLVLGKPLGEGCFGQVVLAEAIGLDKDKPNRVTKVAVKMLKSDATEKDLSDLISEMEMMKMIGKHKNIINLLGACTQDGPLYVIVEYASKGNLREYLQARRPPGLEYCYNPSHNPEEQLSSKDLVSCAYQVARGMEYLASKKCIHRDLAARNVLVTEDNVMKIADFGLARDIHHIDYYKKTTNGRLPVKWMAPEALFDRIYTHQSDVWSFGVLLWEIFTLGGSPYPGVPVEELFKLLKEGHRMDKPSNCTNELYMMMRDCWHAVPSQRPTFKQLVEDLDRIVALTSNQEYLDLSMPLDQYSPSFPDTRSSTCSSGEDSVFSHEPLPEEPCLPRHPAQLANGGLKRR
# Experiment: as above
row,Sequence,phosphorylation enrichment
1,SFLFRYADDSF [RAB3C_Y50],0.475
2,RRIHSYRGHLC [VHL_Y112_W117C],0.503
3,KASIMYPSNNC [CXCL11_Y52],0.484
4,SVTCTYSPDLN [TP53_Y126_A129D],0.533
5,QDIMAYRGREV [BCL6_Y157],0.565
6,ALTDNYMFVVI [HAGH_Y61_L64V_YF],8.71
7,PFIDSYEKDVA [PGM1_Y521_L516P_YF],0.592
8,LSSISYVGCSL [ADGRD1_Y571],0.719
9,VFFGSYSRPFG [NKAP_Y104_YF],0.522
10,WSFNLYDINKD [KCNIP3_Y174_A170S],0.566
11,ISISPYPAILH [IFT80_Y588_T586S],0.341
12,ATHSGYRLNDY [CLDN14_Y233],0.503
13,GGSTFYIDTNA [ACTL6A_Y69_P66S_YF],0.528
14,LQEKSYIKGTS [LCTL_Y331],1.15
15,QFLMKYVWSAS [ABCD1_Y337],0.513
16,ECKLLYSQKEG [PTPN11_Y263_R265Q],0.532
17,ADAGMYGVLPW [PLP1_Y207_R205G],0.549
18,KKMKRYHVGKV [HARS2_Y151],0.298
19,TNYSLYLRSLE [MTM1_Y71_R69S],0.456
20,STEAIYWRFSK [SH3PXD2B_Y42_R43W_YF],0.913
21,CNSFQYGGGGG [NPPA_Y151_R150Q],0.409
22,NTFENYWPFFQ [GATM_Y103_K102N_YF],12.4
23,ELPEKYSQNIF [PKP2_Y626_YF],0.579
24,EVEPRYVVLFD [ERCC4_Y577_YF],0.999
25,PEFVVYKPQME [CCRL2_Y170],0.673
26,ALECLYRREKR [TEKT5_Y195_H196R],0.584
27,VSTAVYKRFAS [BEST1_Y148_P152A],0.507
28,GIVEDYRPPVF [ACVRL1_Y421_F425V_YF],0.414
29,STEAIYRRYSK [SH3PXD2B_Y42],0.41
